Data on four molecules can be found in article PMC4284093 (Journal of molecular biology, 2014).

Broadly, the stoichiometry N is a count of units in the complex or per binding partner.

The target of series [1] is DEBS3 (6-deoxyerythronolide B synthase 3; modules 5 and 6 and the TE domain) (Saccharopolyspora erythraea) (UniProt Q03133). The series is described as follows: SEC-SAXS. (In gel filtration, larger molecules generally elute earlier.)
Series [2] addresses KSAT3+KR3 (module 3 of 6-deoxyerythronolide B synthase without the ACP domain) (Saccharopolyspora erythraea). In words: SEC-SAXS.
The target is the same in series [3]. In words: SEC.
The target in series [4] is M3+TE (module 3 of 6-deoxyerythronolide B synthase fused to the TE domain) (Saccharopolyspora erythraea). In words: SEC-SAXS.
Series [5] concerns the molecule itself. In words: SEC-SAXS.

In series [1], “DEBS3 (6-deoxyerythronolide B synthase 3; modules 5 and 6 and the TE domain), Q03133 1-3172” had a stoichiometry N of 2.

For “KSAT3+KR3 (module 3 of 6-deoxyerythronolide B synthase without the ACP domain) (domain or fragment)”, the stoichiometry N in series [2] and in series [3] was 2 each time. Take “M3+TE (module 3 of 6-deoxyerythronolide B synthase fused to the TE domain) (enzyme)”: the stoichiometry N in series [4] amounted to 2.

B1: TE (terminal thioesterase domain of 6-deoxyerythronolide B synthase) (domain or fragment, Saccharopolyspora erythraea)
chain: QLDSGTPAREASSALRDGYRQAGVSGRVRSYLDLLAGLSDFREHFDGSDGFSLDLVDMADGPGEVTVICCAGTAAISGPHEFTRLAGALRGIAPVRAVPQPGYEEGEPLPSSMAAVAAVQADAVIRTQGDKPFVVAGHSAGALMAYALATELLDRGHPPRGVVLIDVYPPGHQDAMNAWLEELTATLFDRETVRMDDTRLTALGAYDRLTGQWRPRETGLPTLLVSAGEPMGPWPDDSWKPTWPFEHDTVAVPGDHFTMVQEHADAIARHIDAWLGGGNS
With B1, the “stoichiometry N” value in series [5] turned out to be 2.
